Assay results from patent publication US20250215097A1 (BEIJING TIANNUOJIANCHENG PHARMA TECH, published 2025).

Experiments:
rabbit CCR8 = biological target: T1, rabbit CCR8 (rabbit); assay: flow cytometry on HEK293-rabbit CCR8 cells
T1 construct: Transiently expressed on HEK293 cells; also called HEK293-rabbit CCR8 cells; rabbit CCR8+ cells
T1 chain: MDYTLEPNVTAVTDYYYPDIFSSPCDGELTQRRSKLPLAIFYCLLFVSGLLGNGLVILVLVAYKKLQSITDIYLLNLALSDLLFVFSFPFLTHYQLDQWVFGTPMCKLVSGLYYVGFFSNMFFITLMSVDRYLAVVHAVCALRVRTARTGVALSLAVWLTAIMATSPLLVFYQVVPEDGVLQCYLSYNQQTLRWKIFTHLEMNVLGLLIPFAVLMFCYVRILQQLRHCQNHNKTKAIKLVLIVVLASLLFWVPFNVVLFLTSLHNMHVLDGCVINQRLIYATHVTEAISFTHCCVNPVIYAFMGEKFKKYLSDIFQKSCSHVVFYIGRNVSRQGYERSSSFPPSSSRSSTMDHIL
Experimental: A lentiviral vector plasmid containing rabbit CCR8 was constructed by using a rabbit CCR8 cDNA (biosynthesized by GENEWIZ, Suzhou and having the amino acid sequence shown in SEQ ID NO. 112) as a template. The lentiviral vector plasmid containing rabbit CCR8 was transfected into HEK293 cells (hereinafter referred to HEK293-rabbit CCR8 cells) by using PEI MAX® (Polysciences 9002-98-6) as a transfection reagent referring to instructions of a transfection reagent. 24 hours after the transfection, 5×10⁴ HEK293-rabbit CCR8 cells were added per well in a 96-well U-shaped plate and centrifuged to discard the supernatant. 100 μL of a gradiently diluted h87D8 H2K4 e5 or anti-KLH isotype control antibody was added per well and the mixture was incubated on ice for 60 minutes. After the unbound primary antibody was washed away, 50 μL of a secondary antibody AlexaFluro647 anti-human IgG (Jackson Immuno Research #109-606-170) was added per well and the mixture was incubated on ice for 30 minutes. After the washing. […] Then excess secondary antibody was washed away with 0.5% BSA, the cells were resuspended by adding a PBS solution, and binding of the antibody to the cells was detected using a flow cytometer (Intellicyte iQue). The fluorescence value of a PI-negative cell population was analyzed. […]

FcγRIIIAF158 = biological target: T2, FcγRIIIAF158 (UniProt P08637 17-208); assay: SPR (Biacore T200), antibody captured by anti-human IgG F(ab')2 on CM5, FcγRIIIA as analyte; FcγRIIIAF158
T2 construct: F158 allotype; also called FcγRIIIA158F
Experimental: (§1) The affinities of the Fc function-enhanced humanized CCR8 antibodies to FcγRIIIAV158 and FcγRIIIAF158 were detected by using a surface plasmon resonance technology (SPR/Biacore T200). A coupling reagent Amine Coupling Kit (GE Healthcare BR-1000-50) was used to couple Goat Anti-Human IgG F(ab′)2 to the surface of a CM5 chip. h87D8 H2K4 e5 or h87D8 H2K4 was captured through high-affinity binding with the antibodies and then gradiently diluted FcγRIIIAV158 or FcγRIIIAF158 was injected in sequence. The binding time was set to be 120 seconds, the dissociation time was set to be 200 seconds, regeneration was performed for 30 seconds by 10 mM Glycine-HCl with the pH value of 1.75, and the flow rate was set to be […]. The measured data were fitted to obtain an equilibrium dissociation constant. The affinities of h87D8 H2K4 e5 or h87D8 H2K4 to FcγRIIIAV158 and FcγRIIIAF158 were respectively measured. […] The binding of h87D8 H2K4 e5 to FcγRIIIAV158 and FcγRIIIAF158 was stronger than that of h87D8 H2K4.

human CCR8 [1] = biological target: T3, human CCR8 (human, UniProt P51685 1-355); assay: cell-based or functional assay
FcγRIIIAV158 = biological target: T4, FcγRIIIAV158 (UniProt P08637 17-208); assay: SPR (Biacore T200), antibody captured by anti-human IgG F(ab')2 on CM5, FcγRIIIA as analyte; FcγRIIIAV158
T4 construct: V158 allotype; also called FcγRIIIA158V
Experimental: as §1

human CCR8 [2] = biological target: T3, human CCR8; assay: cell-based or functional assay; remark: listed apart in the source
cynomolgus monkey CCR8 = biological target: T5, cynomolgus monkey CCR8 (cynomolgus monkey, UniProt O97665 1-356 (rhesus entry)); assay: flow cytometry on CHO-cynoCCR8 cells
T5 construct: Full-length, stably expressed on CHO cells; also called cynoCCR8; CHO-cynoCCR8
Experimental: (§2) 5×10⁴ CHO-hCCR8 or CHO-cynoCCR8 cells were added per well in a 96-well U-shaped plate and centrifuged to discard the supernatant. 100 μL of a gradiently diluted anti-CCR8 chimeric antibody was added per well and the mixture was incubated on ice for 60 minutes. After the unbound primary antibody was washed away, 50 μL, of a secondary antibody AlexaFluro647 anti-human IgG (Jackson Immuno Research #109-606-170) was added per well and the mixture was incubated on ice for 30 minutes. After the washing, 50 μL of 5 μg/mL of a Pi/BSA solution was added to each well and the mixture was incubated on ice for 5 minutes. Then excess secondary antibody was washed away with 0.5% BSA, the cells were resuspended by adding a PBS solution, and binding of the antibody to the cells was detected using a flow cytometer (BD Celesta). The fluorescence value of a PI-negative cell population was analyzed. Cell-binding curves were fitted by Graphpad Prism 7.

human CCR8 [3] = biological target: T3, human CCR8; assay: flow cytometry on CHO-hCCR8 cells
Experimental: as §2

T3 sequence (P51685 whole entry): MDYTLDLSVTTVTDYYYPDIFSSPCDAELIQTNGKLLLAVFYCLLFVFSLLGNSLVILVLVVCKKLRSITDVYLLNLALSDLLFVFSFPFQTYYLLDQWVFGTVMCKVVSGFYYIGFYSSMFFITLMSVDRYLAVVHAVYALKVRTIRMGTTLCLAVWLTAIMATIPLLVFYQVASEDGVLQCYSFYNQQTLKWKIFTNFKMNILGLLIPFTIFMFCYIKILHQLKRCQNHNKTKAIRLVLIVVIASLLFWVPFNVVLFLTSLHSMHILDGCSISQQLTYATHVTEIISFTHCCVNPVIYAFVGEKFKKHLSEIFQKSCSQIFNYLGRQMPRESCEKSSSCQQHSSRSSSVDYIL
T4 sequence (P08637 17-208 F176V limits assumed): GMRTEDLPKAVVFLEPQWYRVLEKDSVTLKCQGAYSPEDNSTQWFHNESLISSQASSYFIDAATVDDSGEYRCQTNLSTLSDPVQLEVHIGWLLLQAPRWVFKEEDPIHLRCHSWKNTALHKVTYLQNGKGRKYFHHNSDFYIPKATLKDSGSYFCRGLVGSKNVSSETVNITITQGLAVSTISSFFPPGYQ
T2 sequence (P08637 17-208 limits assumed): as the sequence (P08637 17-208 F176V limits assumed) above, with V160F counted along it
T5 sequence (O97665 other isoform, or with tags, fused parts or gaps): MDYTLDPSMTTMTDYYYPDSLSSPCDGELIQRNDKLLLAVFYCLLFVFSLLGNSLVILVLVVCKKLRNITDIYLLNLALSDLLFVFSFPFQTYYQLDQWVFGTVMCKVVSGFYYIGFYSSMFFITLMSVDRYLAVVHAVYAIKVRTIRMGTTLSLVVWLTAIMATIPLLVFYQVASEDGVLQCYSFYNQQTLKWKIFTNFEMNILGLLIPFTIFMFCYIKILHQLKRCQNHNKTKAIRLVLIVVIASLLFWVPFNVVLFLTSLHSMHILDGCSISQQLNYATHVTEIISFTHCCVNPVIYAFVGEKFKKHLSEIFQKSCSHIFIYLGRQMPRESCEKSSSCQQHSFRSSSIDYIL

Binder | EC50 (rabbit CCR8) [nM] | Kd (FcγRIIIAF158) [nM] | ADCC EC50 (nM), PBMC FcγRIIIA158F/F effectors, HEK293-hCCR8 targets (human CCR8 [1]) [nM] | ADCC EC50 (nM), PBMC FcγRIIIA158V/V effectors, HEK293-hCCR8 targets (human CCR8 [1]) [nM] | ADCC maximal lysis rate, PBMC FcγRIIIA158F/F effectors, HEK293-hCCR8 targets (human CCR8 [1]) [%] | ADCC maximal lysis rate, PBMC FcγRIIIA158V/V effectors, HEK293-hCCR8 targets (human CCR8 [1]) [%] | Kd (FcγRIIIAV158) [nM] | ADCC half-maximal effective concentration EC50, NK92-CD16A effectors, HuT78 targets (human CCR8 [2]) [nM] | ADCC maximal lysis rate, NK92-CD16A effectors, HEK293-hCCR8 targets (human CCR8 [2]) [%] | half-maximal effective concentration EC50 of inhibition of the Ca2+ current signal, CHO-hCCR8 cells, CCL1 stimulus (human CCR8 [2]) [nM] | EC50 (cynomolgus monkey CCR8) [nM] | EC50 (human CCR8 [3]) [nM]
h87D8 H2K4 hIgG1 e5 (antibody, also called h87D8 H2K4 e5; h87D8H2K4e5; copies: 2 + 2) heavy: not shown light: DIVMTQSPLSLPVTPGEPASISCRSSKSLLHSNYNTYLYWFLQKPGQSPQLLIYRTSNLASGVPDRFSGSGSGTDFTLKISRVEAEDVGVYYCMQHLEYPLTFGQGTKLEIKRTVAAPSVFIFPPSDEQLKSGTASVVCLLNNFYPREAKVQWKVDNALQSGNSQESVTEQDSKDSTYSLSSTLTLSKADYEKHKVYACEVTHQGLSSPVTKSFNRGEC | 0.21 | 433 | 0.02 | 0.01 | 77 | 75 | 270 | 0.53 | 61 | 5.2 | – | –
h87D8 H2K4 hIgG1 (antibody, Humanized, wild-type human IgG1 Fc; also called h87D8 VHv2+h87D8 VKv4; copies: 2 + 2) heavy: not shown light: DIVMTQSPLSLPVTPGEPASISCRSSKSLLHSNYNTYLYWFLQKPGQSPQLLIYRTSNLASGVPDRFSGSGSGTDFTLKISRVEAEDVGVYYCMQHLEYPLTFGQGTKLEIKRTVAAPSVFIFPPSDEQLKSGTASVVCLLNNFYPREAKVQWKVDNALQSGNSQESVTEQDSKDSTYSLSSTLTLSKADYEKHKVYACEVTHQGLSSPVTKSFNRGEC | – | 1300 | – | – | – | – | 861 | – | – | – | 2.28 | 0.68
